{"source": "the Human Domainome abundance scans (Beltran et al. 2025)", "parents": {"B1": {"name": "Zinc finger MYM-type protein 6, residues 427 to 504; numbered along this chain, O95789 (parent)", "chain": "KLKCQHCNHLFATKPELLFYKGKMFLFCGKNCSDEYKKKNKVVAMCDYCKLQKIIKETVRFSGVDKPFCSEVCKFLSA"}}, "note": "± gives the uncertainty stated by the source."}
{"variants_of": "B1", "assay": "abundance fitness (aPCA) (normalised: wild type 0, dead -1); higher = more abundant; growth selection in yeast, the domain comes from the species named", "settings": "Homo sapiens"}
{"variant": "L2I", "abundance fitness": "-0.06 ± 0.054"}
{"variant": "L2G", "abundance fitness": "0.082 ± 0.028"}
{"variant": "L2D", "abundance fitness": "0.069 ± 0.054"}
{"variant": "L2T", "abundance fitness": "0.125 ± 0.042"}
{"variant": "L2F", "abundance fitness": "0.018 ± 0.14"}
{"variant": "L2A", "abundance fitness": "0.096 ± 0.03"}
{"variant": "L2Q", "abundance fitness": "0.099 ± 0.059"}
{"variant": "L2V", "abundance fitness": "0.01 ± 0.031"}
{"variant": "N31C", "abundance fitness": "-0.1 ± 0.047"}
{"variant": "N31G", "abundance fitness": "-0.026 ± 0.029"}
{"variant": "M45A", "abundance fitness": "0.039 ± 0.089"}
{"variant": "M45K", "abundance fitness": "-0.237 ± 0.18"}
{"variant": "M45P", "abundance fitness": "-0.328 ± 0.16"}
{"variant": "M45V", "abundance fitness": "-0.145 ± 0.096"}
{"variant": "M45H", "abundance fitness": "-0.345 ± 0.36"}
{"variant": "K56G", "abundance fitness": "-0.192 ± 0.078"}
{"variant": "K56S", "abundance fitness": "-0.411 ± 0.15"}
{"variant": "K56M", "abundance fitness": "0.511 ± 0.12"}
{"variant": "K56Q", "abundance fitness": "-0.044 ± 0.14"}
{"variant": "K50Y", "abundance fitness": "-0.48 ± 0.5"}
{"variant": "K50S", "abundance fitness": "-0.422 ± 0.18"}
{"variant": "K50T", "abundance fitness": "-0.687 ± 0.45"}
{"variant": "C4R", "abundance fitness": "-0.877 ± 0.053"}
{"variant": "C4V", "abundance fitness": "-0.758 ± 0.045"}
{"variant": "C4D", "abundance fitness": "-0.879 ± 0.25"}
{"variant": "A12T", "abundance fitness": "-0.056 ± 0.043"}
{"variant": "A12V", "abundance fitness": "-0.223 ± 0.034"}
{"variant": "A12I", "abundance fitness": "0.062 ± 0.19"}
{"variant": "A12K", "abundance fitness": "0.008 ± 0.049"}
{"variant": "A12F", "abundance fitness": "-0.181 ± 0.053"}
{"variant": "A12P", "abundance fitness": "-0.131 ± 0.04"}
{"variant": "K14Q", "abundance fitness": "-0.126 ± 0.12"}
{"variant": "K14T", "abundance fitness": "-0.032 ± 0.051"}
{"variant": "K14V", "abundance fitness": "-0.141 ± 0.033"}
{"variant": "K14C", "abundance fitness": "-0.243 ± 0.096"}
{"variant": "K14M", "abundance fitness": "-0.287 ± 0.042"}
{"variant": "K14Y", "abundance fitness": "-0.492 ± 0.11"}
{"variant": "K14S", "abundance fitness": "-0.085 ± 0.035"}
{"variant": "K14W", "abundance fitness": "-0.408 ± 0.056"}
{"variant": "T13P", "abundance fitness": "-0.128 ± 0.044"}
{"variant": "T13R", "abundance fitness": "-0.087 ± 0.028"}
{"variant": "T13H", "abundance fitness": "-0.039 ± 0.052"}
{"variant": "T13G", "abundance fitness": "-0.024 ± 0.029"}
{"variant": "T13S", "abundance fitness": "-0.148 ± 0.052"}
{"variant": "T13K", "abundance fitness": "-0.056 ± 0.051"}
{"variant": "P67A", "abundance fitness": "-0.51 ± 0.22"}
{"variant": "P67Q", "abundance fitness": "0.296 ± 0.15"}
{"variant": "N8K", "abundance fitness": "0.01 ± 0.043"}
{"variant": "N8V", "abundance fitness": "-0.088 ± 0.031"}
{"variant": "N8Y", "abundance fitness": "-0.264 ± 0.071"}
{"variant": "N8Q", "abundance fitness": "0.044 ± 0.04"}
{"variant": "N8C", "abundance fitness": "-0.015 ± 0.038"}
{"variant": "F68L", "abundance fitness": "-0.288 ± 0.13"}
{"variant": "F68T", "abundance fitness": "-0.555 ± 0.35"}
{"variant": "F68P", "abundance fitness": "-0.113 ± 0.14"}
{"variant": "F68R", "abundance fitness": "-0.516 ± 0.11"}
{"variant": "K1V", "abundance fitness": "-0.355 ± 0.039"}
{"variant": "K1L", "abundance fitness": "-0.271 ± 0.047"}
{"variant": "K1A", "abundance fitness": "-0.276 ± 0.041"}
{"variant": "K1Q", "abundance fitness": "-0.194 ± 0.14"}
{"variant": "K1S", "abundance fitness": "-0.131 ± 0.076"}
{"variant": "K1M", "abundance fitness": "-0.252 ± 0.05"}
{"variant": "S77V", "abundance fitness": "-0.857 ± 0.24"}
{"variant": "S77R", "abundance fitness": "-0.394 ± 0.09"}
{"variant": "Y48G", "abundance fitness": "-0.174 ± 0.077"}
{"variant": "Y48S", "abundance fitness": "-0.52 ± 0.13"}
{"variant": "Y48T", "abundance fitness": "-0.014 ± 0.34"}
{"variant": "E57D", "abundance fitness": "0.002 ± 0.3"}
{"variant": "E57C", "abundance fitness": "0.163 ± 0.27"}
{"variant": "E57L", "abundance fitness": "-0.711 ± 0.25"}
{"variant": "E57S", "abundance fitness": "-0.388 ± 0.13"}
{"variant": "E57M", "abundance fitness": "0.605 ± 0.12"}
{"variant": "A78W", "abundance fitness": "-0.284 ± 0.42"}
{"variant": "A78E", "abundance fitness": "-0.067 ± 0.31"}
{"variant": "A78N", "abundance fitness": "-0.301 ± 0.14"}
{"variant": "A78M", "abundance fitness": "0.774 ± 0.16"}
{"variant": "A78R", "abundance fitness": "-0.142 ± 0.15"}
{"variant": "F25P", "abundance fitness": "-0.17 ± 0.036"}
{"variant": "F25H", "abundance fitness": "-0.109 ± 0.073"}
{"variant": "F25I", "abundance fitness": "-0.126 ± 0.43"}
{"variant": "F25W", "abundance fitness": "-0.027 ± 0.035"}
{"variant": "F25L", "abundance fitness": "0.043 ± 0.03"}
{"variant": "L51Q", "abundance fitness": "0.529 ± 0.12"}
{"variant": "L51S", "abundance fitness": "0.567 ± 0.089"}
{"variant": "K37S", "abundance fitness": "-0.068 ± 0.051"}
{"variant": "K37W", "abundance fitness": "-0.099 ± 0.033"}
{"variant": "K37L", "abundance fitness": "-0.134 ± 0.035"}
{"variant": "K37P", "abundance fitness": "-0.114 ± 0.036"}
{"variant": "K37V", "abundance fitness": "-0.029 ± 0.03"}
{"variant": "K37M", "abundance fitness": "-0.214 ± 0.15"}
{"variant": "K37D", "abundance fitness": "-0.057 ± 0.065"}
{"variant": "K37N", "abundance fitness": "0.097 ± 0.24"}
{"variant": "K37G", "abundance fitness": "-0.027 ± 0.027"}
{"variant": "K37T", "abundance fitness": "-0.099 ± 0.04"}
{"variant": "K37R", "abundance fitness": "-0.046 ± 0.028"}
{"variant": "S70A", "abundance fitness": "-0.651 ± 0.12"}
{"variant": "S70M", "abundance fitness": "-0.482 ± 0.21"}
{"variant": "S70R", "abundance fitness": "-0.925 ± 0.14"}
{"variant": "S70G", "abundance fitness": "-0.502 ± 0.098"}
{"variant": "K39Y", "abundance fitness": "0.024 ± 0.25"}
{"variant": "K39W", "abundance fitness": "-0.099 ± 0.036"}
{"variant": "K39L", "abundance fitness": "-0.107 ± 0.052"}
{"variant": "K39G", "abundance fitness": "0.005 ± 0.027"}
{"variant": "K30D", "abundance fitness": "-0.138 ± 0.043"}
{"variant": "K30F", "abundance fitness": "-0.101 ± 0.054"}
{"variant": "K30W", "abundance fitness": "-0.146 ± 0.035"}
{"variant": "K30T", "abundance fitness": "-0.123 ± 0.046"}
{"variant": "A44S", "abundance fitness": "-0.282 ± 0.12"}
{"variant": "A44E", "abundance fitness": "-0.112 ± 0.16"}
{"variant": "A44T", "abundance fitness": "-0.629 ± 0.28"}
{"variant": "A44Y", "abundance fitness": "-1.28 ± 0.26"}
{"variant": "A44P", "abundance fitness": "-0.604 ± 0.28"}
{"variant": "A44W", "abundance fitness": "-0.558 ± 0.28"}
{"variant": "Y20H", "abundance fitness": "-0.079 ± 0.053"}
{"variant": "V64D", "abundance fitness": "0.474 ± 0.25"}
{"variant": "V64G", "abundance fitness": "0.046 ± 0.063"}
{"variant": "V64R", "abundance fitness": "0.058 ± 0.086"}
{"variant": "V64T", "abundance fitness": "0.037 ± 0.18"}
{"variant": "V64F", "abundance fitness": "-0.448 ± 0.4"}
{"variant": "V64S", "abundance fitness": "-0.107 ± 0.1"}
{"variant": "K38P", "abundance fitness": "-0.163 ± 0.042"}
{"variant": "K38Q", "abundance fitness": "-0.053 ± 0.042"}
{"variant": "K38V", "abundance fitness": "-0.018 ± 0.032"}
{"variant": "K38A", "abundance fitness": "0.023 ± 0.029"}
{"variant": "L76T", "abundance fitness": "-0.109 ± 0.28"}
{"variant": "L76G", "abundance fitness": "-0.052 ± 0.073"}
{"variant": "L76Y", "abundance fitness": "-0.189 ± 0.33"}
{"variant": "C69S", "abundance fitness": "-0.539 ± 0.15"}
{"variant": "C69Q", "abundance fitness": "-0.404 ± 0.19"}
{"variant": "C69E", "abundance fitness": "-0.286 ± 0.15"}
{"variant": "C69P", "abundance fitness": "-0.391 ± 0.18"}
{"variant": "C69A", "abundance fitness": "-1.23 ± 0.28"}
{"variant": "C69W", "abundance fitness": "-0.71 ± 0.16"}
{"variant": "C69K", "abundance fitness": "-0.637 ± 0.18"}
{"variant": "M24V", "abundance fitness": "-0.172 ± 0.044"}
{"variant": "M24S", "abundance fitness": "0.012 ± 0.048"}
{"variant": "M24P", "abundance fitness": "0.034 ± 0.041"}
{"variant": "M24R", "abundance fitness": "0.13 ± 0.029"}
{"variant": "M24D", "abundance fitness": "0 ± 0.061"}
{"variant": "M24L", "abundance fitness": "-0.109 ± 0.045"}
{"variant": "G29R", "abundance fitness": "-0.104 ± 0.029"}
{"variant": "G29K", "abundance fitness": "-0.004 ± 0.07"}
{"variant": "G29M", "abundance fitness": "-0.084 ± 0.089"}
{"variant": "G29D", "abundance fitness": "-0.386 ± 0.13"}
{"variant": "G29Q", "abundance fitness": "-0.09 ± 0.056"}
{"variant": "G29H", "abundance fitness": "-0.333 ± 0.21"}
{"variant": "G22P", "abundance fitness": "-0.33 ± 0.071"}
{"variant": "G22E", "abundance fitness": "0.049 ± 0.057"}
{"variant": "G22L", "abundance fitness": "-0.231 ± 0.056"}
{"variant": "G22V", "abundance fitness": "-0.255 ± 0.047"}
{"variant": "G22A", "abundance fitness": "-0.065 ± 0.033"}
{"variant": "G22M", "abundance fitness": "-0.118 ± 0.11"}
{"variant": "C32T", "abundance fitness": "-1.29 ± 0.23"}
{"variant": "C32V", "abundance fitness": "-0.919 ± 0.1"}
{"variant": "Y36T", "abundance fitness": "-0.169 ± 0.06"}
{"variant": "Y36N", "abundance fitness": "-0.172 ± 0.17"}
{"variant": "Y36K", "abundance fitness": "-0.661 ± 0.12"}
{"variant": "Y36Q", "abundance fitness": "-0.13 ± 0.056"}
{"variant": "Y36A", "abundance fitness": "-0.074 ± 0.03"}
{"variant": "Y36C", "abundance fitness": "-0.187 ± 0.061"}
{"variant": "K23M", "abundance fitness": "-0.041 ± 0.058"}
{"variant": "K23G", "abundance fitness": "-0.067 ± 0.029"}
{"variant": "K23T", "abundance fitness": "-0.036 ± 0.076"}
{"variant": "K23D", "abundance fitness": "-0.09 ± 0.064"}
{"variant": "L18Q", "abundance fitness": "-0.042 ± 0.068"}
{"variant": "L18K", "abundance fitness": "-0.059 ± 0.088"}
{"variant": "L18R", "abundance fitness": "-0.077 ± 0.03"}
